Starred links: 1 amine or outer side, 2 acyl side, 3 side chain; linkers in the order of their positions; H or OH if unused. Positions of bridges follow the written chain, without caps; N, C: chain ends. Non-standard residues stand in square brackets, D forms with d. Primed or numbered codes have the meaning given here. PyrS2″ = (S)-3-amino-1-((pent-4-en-1-yloxy)carbonyl)pyrrolidine-3-carboxylic acid (stapling residue), C=CCCCOC(=O)N1CC[C@@](N[*:1])(C(=O)[*:2])C1; B5(4) = 2,2-bis(4-pentenyl)glycine = 2-amino-2-(pent-4-en-1-yl)hept-6-enoic acid (stitching residue), C=CCCCC(CCCC=C)(N[*:1])C(=O)[*:2]; B5(5) = 2,2-bis(4-pentenyl)glycine, 2-amino-2-(pent-4-en-1-yl)hept-6-enoic acid (stitching residue), C=CCCCC(CCCC=C)(N[*:1])C(=O)[*:2]; B5(31) = 2-amino-2-(pent-4-en-1-yl)hept-6-enoic acid (bis-pentenylglycine, stitching residue), C=CCCCC(CCCC=C)(N[*:1])C(=O)[*:2]; B5(3) = 2,2-bis(4-pentenyl)glycine (stitching residue), C=CCCCC(CCCC=C)(N[*:1])C(=O)[*:2]; Phe(3-CF3) = N[C@@H](Cc1cccc(C(F)(F)F)c1)C(=O)O; Phe(4-CF3) = N[C@@H](Cc1ccc(C(F)(F)F)cc1)C(=O)O; Phe(3-COOH) = N[C@@H](Cc1cccc(C(=O)O)c1)C(=O)O; Phe(2-CF3) = N[C@@H](Cc1ccccc1C(F)(F)F)C(=O)O; Phe(3-OMe) = COc1cccc(C[C@H](N)C(=O)O)c1; Phe(2-Cl) = N[C@@H](Cc1ccccc1Cl)C(=O)O; 1Nal = N[C@@H](Cc1cccc2ccccc12)C(=O)O; 2Nal = N[C@@H](Cc1ccc2ccccc2c1)C(=O)O; Met(O2) = CS(=O)(=O)CC[C@H](N)C(=O)O; Phe(2-F) = N[C@@H](Cc1ccccc1F)C(=O)O; Bta = N[C@@H](Cc1csc2ccccc12)C(=O)O; Lys(iPr) = CC(C)NCCCC[C@H](N)C(=O)O; αAllylPro = C=CC[C@@]1(C(=O)O)CCCN1; tBuAla = CC(C)(C)C[C@H](N)C(=O)O; 3Thi = N[C@@H](Cc1ccsc1)C(=O)O; Cha = N[C@@H](CC1CCCCC1)C(=O)O; hSer = N[C@@H](CCO)C(=O)O; Aib = CC(C)(N)C(=O)O

In US20240116985A1, “STAPLED PEPTIDES AND METHODS THEREOF” (priority 2020, published 2024) one finds IC50 and EC50 data, which are given here for 34 molecules.

Assay [1] has as its target full-length beta-Catenin (Uniprot ID P35222) (Homo sapiens (Human)) (UniProt P35222). In words: fluorescence polarization competition; 10 nM full-length beta-catenin + 10 nM 5FAM-TCF4(10-53) probe; peptide titrated 10 uM to 5 nM.
Target sequence in this assay (P35222 2-781 limits assumed): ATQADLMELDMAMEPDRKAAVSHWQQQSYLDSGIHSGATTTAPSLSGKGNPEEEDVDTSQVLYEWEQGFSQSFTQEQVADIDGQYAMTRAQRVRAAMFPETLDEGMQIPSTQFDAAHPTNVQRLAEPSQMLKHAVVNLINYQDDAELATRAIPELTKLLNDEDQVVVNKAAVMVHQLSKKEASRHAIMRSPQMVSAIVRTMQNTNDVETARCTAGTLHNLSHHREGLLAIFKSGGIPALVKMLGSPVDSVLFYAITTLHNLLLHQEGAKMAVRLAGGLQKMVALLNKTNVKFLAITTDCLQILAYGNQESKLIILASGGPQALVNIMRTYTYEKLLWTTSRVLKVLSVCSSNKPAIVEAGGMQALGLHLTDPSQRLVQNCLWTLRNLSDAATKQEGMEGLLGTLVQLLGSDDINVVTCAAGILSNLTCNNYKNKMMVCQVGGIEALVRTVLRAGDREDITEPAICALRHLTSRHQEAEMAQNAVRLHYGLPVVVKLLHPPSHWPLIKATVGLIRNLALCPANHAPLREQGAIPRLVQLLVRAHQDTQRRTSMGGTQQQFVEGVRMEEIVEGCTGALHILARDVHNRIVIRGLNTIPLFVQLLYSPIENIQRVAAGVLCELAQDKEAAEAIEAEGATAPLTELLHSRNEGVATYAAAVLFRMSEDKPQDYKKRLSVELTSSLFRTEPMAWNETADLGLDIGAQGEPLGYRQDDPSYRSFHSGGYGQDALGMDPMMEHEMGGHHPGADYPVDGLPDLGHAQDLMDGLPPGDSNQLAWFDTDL
Assay [2] has the same target. In words: fluorescence polarization competition, 5FAM-TCF4 10-53 probe on full-length beta-catenin.
Target sequence in this assay (P35222 2-781 limits assumed): as above
For assay [3] the target is unchanged. Description: fluorescence polarization competition, full-length beta-catenin, competitor 5FAM-TCF4 10-53. In general terms: In fluorescence polarisation assays a small probe gives low polarisation when free and higher when bound to something large.
Target sequence in this assay (P35222 whole entry): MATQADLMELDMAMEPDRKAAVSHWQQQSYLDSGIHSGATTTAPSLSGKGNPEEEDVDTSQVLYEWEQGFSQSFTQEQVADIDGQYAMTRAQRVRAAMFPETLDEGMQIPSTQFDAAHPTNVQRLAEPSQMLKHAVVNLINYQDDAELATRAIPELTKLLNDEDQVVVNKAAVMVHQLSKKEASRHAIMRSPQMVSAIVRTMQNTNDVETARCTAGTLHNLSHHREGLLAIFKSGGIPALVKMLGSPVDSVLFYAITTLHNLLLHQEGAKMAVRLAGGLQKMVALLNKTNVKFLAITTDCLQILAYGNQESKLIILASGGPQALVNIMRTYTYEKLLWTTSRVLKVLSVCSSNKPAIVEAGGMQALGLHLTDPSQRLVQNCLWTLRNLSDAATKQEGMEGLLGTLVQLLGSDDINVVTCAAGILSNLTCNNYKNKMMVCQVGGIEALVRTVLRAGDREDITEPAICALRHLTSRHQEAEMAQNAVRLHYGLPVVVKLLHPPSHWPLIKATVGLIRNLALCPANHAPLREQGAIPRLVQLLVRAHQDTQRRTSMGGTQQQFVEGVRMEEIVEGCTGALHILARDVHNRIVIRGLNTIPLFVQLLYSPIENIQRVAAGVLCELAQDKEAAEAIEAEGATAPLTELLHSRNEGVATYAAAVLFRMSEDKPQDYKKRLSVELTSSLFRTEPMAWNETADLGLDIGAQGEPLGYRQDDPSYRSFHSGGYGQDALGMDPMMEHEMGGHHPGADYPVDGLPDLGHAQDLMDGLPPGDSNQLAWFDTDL
The target is the same in assay [4]. Description: fluorescence polarization competition; 10 nM full-length beta-catenin, 10 nM 5FAM-TCF4(10-53) as competitor probe.
Target sequence in this assay (P35222 2-781 limits assumed): as the sequence (P35222 2-781 limits assumed) above
Assay [5] has the same target. Description: fluorescence polarization competition; full-length beta-catenin, competitor 5FAM-TCF4 10-53.
Target sequence in this assay (P35222 whole entry): as the sequence (P35222 whole entry) above
Assay [6] has the same target. In words: fluorescence polarization competition; 10 nM full-length beta-catenin + 10 nM 5FAM-TCF4 10-53 as competitor probe.
Target sequence in this assay (P35222 2-781 limits assumed): as the sequence (P35222 2-781 limits assumed) above

With Ac-[αAllylPro]D[tBuAla][B5(31)]NTAAFT[PyrS2″][3Thi][Bta]H-NH2 (staple 1-4, 4-11) [I-2337], the IC50 in assay [1] came out at 311 nM. Ac-[αAllylPro]D[Cha][B5(3)]DDAA[Phe(3-OMe)]S[PyrS2″]F[Bta]Q-NH2 (staple 1-4, 4-11 (inferred)) [I-1124] gave an EC50 in assay [2] of 12 nM. Further, the IC50 in assay [3] came out at 12 nM.

On to Ac-[αAllylPro]N[Cha][B5(4)]DQHAFN[PyrS2″]F[Bta]A-NH2 (staple 1-4, 4-11) [I-2069], for which, in assay [4], the half-maximal inhibitory concentration (IC50) stood at 256 nM. In the case of Ac-[αAllylPro]N[Cha][B5(4)]DQ[Lys(iPr)]AFL[PyrS2″]F[Bta]H-NH2 (staple 1-4, 4-11) [I-2351], in assay [1], the IC50 turned out to be 187 nM. In the case of Ac-[αAllylPro]N[Cha][B5(31)]D[hSer][Lys(iPr)]AFL[PyrS2″]F[Bta]Q-NH2 (staple 1-4, 4-11; also: staple isomer, earlier eluting HPLC peak) [I-2344], the half-maximal inhibitory concentration (IC50) in assay [1] is 586 nM.

B1: I-2355 (peptide)
peptide: Ac-[αAllylPro]N[Cha][B5(4)]DQ[hSer]AFL[PyrS2″]F[Bta]Q-NH2
modifications: staple 1-4, 4-11; also: later eluting isomer composition (HPLC), configuration not given here
B1: in assay [1], the IC50 stood at 417 nM. With Ac-[αAllylPro]D[tBuAla][B5(3)]NT[Aib]AFN[PyrS2″][3Thi][Bta]Q-NH2 (staple 1-4, 4-11) [I-2338], the IC50 in assay [1] came to 63 nM. Consider Ac-[αAllylPro]D[tBuAla][B5(4)]D[Phe(3-COOH)]AAFL[PyrS2″][Phe(2-CF3)][Bta][Met(O2)]-NH2 (staple 1-4, 4-11) [I-2063], for which the IC50 in assay [4] came out at 56 nM.

As to Ac-[αAllylPro]N[Cha][B5(4)]DQ[Lys(iPr)]AFN[PyrS2″]F[Bta]A-NH2 (staple 1-4, 4-11) [I-2065], the IC50 in assay [4] was 144 nM. Turning to Ac-[αAllylPro]N[Cha][B5(31)]DK[Lys(iPr)]AFL[PyrS2″]F[Bta]Q-NH2 (staple 1-4, 4-11) [I-2347], the IC50 in assay [1] stood at 5630 nM. Regarding Ac-[αAllylPro]N[Cha][B5(4)]DQQAFN[PyrS2″]F[Bta]A-NH2 (staple 1-4, 4-11) [I-2070], in assay [4], the half-inhibitory concentration (IC50) is 190 nM. Molecule Ac-[αAllylPro]D[tBuAla][B5(5)]DEAAFF[PyrS2″][Phe(2-Cl)][Bta][dT]-NH2 (staple 1-4, 4-11) [I-1038] registered an IC50 in assay [5] of 101 nM. Also, in assay [6], the EC50 was determined as 101 nM. As to Ac-[αAllylPro]N[Cha][B5(3)]DQ[Lys(iPr)]AFL[PyrS2″]F[Bta]K-NH2 (staple 1-4, 4-11) [I-2350], in assay [1], the concentration for half-maximal inhibition (IC50) was determined as 63 nM.

On to Ac-[αAllylPro][hSer][Cha][B5(4)]DQ[Lys(iPr)]AFL[PyrS2″]F[Bta]Q-NH2 (staple 1-4, 4-11) [I-2353], for which the IC50 in assay [1] came out at 2760 nM. Consider Ac-[αAllylPro]N[Cha][B5(5)]DQHAFN[PyrS2″]F[Bta][hSer]-NH2 (staple 1-4, 4-11) [I-2066], for which, in assay [4], the IC50 amounted to 357 nM. The molecule Ac-[αAllylPro]D[tBuAla][B5(5)]DEAAFL[PyrS2″][Phe(2-Cl)][Bta][dT]-NH2 (staple 1-4, 4-11) [I-1039] came in with an IC50 in assay [5] of 57 nM. For the same molecule, the concentration giving a half-maximal response (EC50) in assay [6] was 57 nM. In turn, Ac-[αAllylPro]N[Cha][B5(4)]DQQAFN[PyrS2″]F[Bta][hSer]-NH2 (staple 1-4, 4-11) [I-2067] registered an IC50 in assay [4] of 180 nM. With Ac-[αAllylPro]F[tBuAla][B5(5)]DDAADN[PyrS2″][3Thi][Bta]Q-OH (staple 1-4, 4-11) [I-1027], the 50% effective concentration (EC50) in assay [6] turned out to be 1140 nM.

With Ac-[αAllylPro]N[Cha][B5(4)]DQ[Lys(iPr)]AFN[PyrS2″]F[Bta]F-NH2 (staple 1-4, 4-11) [I-2068], in assay [4], the IC50 was found to be 338 nM. As for Ac-[αAllylPro]D[Cha][B5(3)]DDAAFS[PyrS2″][Phe(2-Cl)][Bta]Q-NH2 (staple 1-4, 4-11 (inferred); not fully specified (residue 9); printed as Ac-PL3-Asp-Cha-B5-Asp-Asp-Ala-Ala-4F3MeF-Ser-PyrS2-2C1F-BztA-Gln-NH2) [I-1120], in assay [2], the EC50 turned out to be 85 nM. Further, the IC50 in assay [3] worked out at 85 nM. As for Ac-[αAllylPro]D[tBuAla][B5(3)]N[Phe(3-COOH)]AAFT[PyrS2″][3Thi][Bta]Q-NH2 (staple 1-4, 4-11) [I-2336], the IC50 in assay [1] is 19 nM. For the molecule Ac-[αAllylPro]N[Cha][B5(31)]DK[Lys(iPr)]AFL[PyrS2″]F[Bta]Q-NH2 (staple 1-4, 4-11; also: staple isomer, earlier eluting HPLC peak) [I-2346], the IC50 in assay [1] stood at 422 nM. The same measure, in the same setting: with Ac-[αAllylPro]N[Cha][B5(4)]DQ[Lys(iPr)]AFL[PyrS2″]F[Bta]A-NH2 (staple 1-4, 4-11) [I-2352] the figure was 211 nM. Consider Ac-[αAllylPro]N[Cha][B5(31)]DH[Lys(iPr)]AFL[PyrS2″]F[Bta]Q-NH2 (staple 1-4, 4-11) [I-2349], for which the IC50 in assay [1] came to 1160 nM.

The molecule Ac-[αAllylPro]D[1Nal][B5(4)]DDAAFL[PyrS2″][Phe(2-Cl)][Bta]S-NH2 (staple 1-4, 4-11) [I-1116] showed an EC50 in assay [2] of 40 nM. The IC50 in assay [3] came out at 40 nM. On to Ac-[αAllylPro]N[Cha][B5(31)]D[hSer][Lys(iPr)]AFL[PyrS2″]F[Bta]Q-NH2 (staple 1-4, 4-11) [I-2345], for which the IC50 in assay [1] is 1270 nM.

Molecule Ac-[αAllylPro]D[tBuAla][B5(5)]DNAAFT[PyrS2″][Phe(2-F)][Bta]S-NH2 (staple 1-4, 4-11) [I-1024] returned an IC50 in assay [5] of 43 nM. In assay [6], the EC50 came out at 43 nM. Turning to Ac-[αAllylPro]D[2Nal][B5(4)]DDAAFL[PyrS2″][Phe(2-Cl)][Bta]S-NH2 (staple 1-4, 4-11) [I-1117], the concentration giving a half-maximal response (EC50) in assay [2] came to 55 nM. For the same molecule, in assay [3], the IC50 turned out to be 55 nM. As to Ac-[αAllylPro]D[Cha][B5(3)]DDAA[Phe(3-OMe)]S[PyrS2″][Phe(2-Cl)][Bta]Q-NH2 (staple 1-4, 4-11 (inferred)) [I-1118], in assay [2], the EC50 was determined as 24 nM. In assay [3], this molecule returned an IC50 of 24 nM. In assay [2], Ac-[αAllylPro]D[Cha][B5(3)]DDAA[Phe(3-CF3)]S[PyrS2″][Phe(2-Cl)][Bta]Q-NH2 (staple 1-4, 4-11 (inferred)) [I-1119] returned an EC50 of 26 nM. In assay [3], this molecule displayed an IC50 of 26 nM.

As to Ac-[αAllylPro]D[tBuAla][B5(31)]NTA[Aib]FN[PyrS2″][3Thi][Bta]Q-NH2 (staple 1-4, 4-11) [I-2339], the IC50 in assay [1] was determined as 2820 nM.

In the case of Ac-[αAllylPro]D[tBuAla][B5(4)]D[Phe(3-COOH)]AAFL[PyrS2″][Phe(2-Cl)][Bta][Met(O2)]-NH2 (staple 1-4, 4-11) [I-2062], the IC50 in assay [4] was 41 nM.

In the case of Ac-[αAllylPro]N[Cha][B5(31)]DH[Lys(iPr)]AFL[PyrS2″]F[Bta]Q-NH2 (staple 1-4, 4-11; also: staple isomer, earlier eluting HPLC peak) [I-2348], the IC50 in assay [1] is 179 nM. Same read-out and setting: with Ac-[αAllylPro]N[Cha][B5(3)]DQ[hSer]AFL[PyrS2″]F[Bta]Q-NH2 (staple 1-4, 4-11; also: earlier eluting isomer, configuration not given here) [I-2354] the figure was 100 nM.

The term IC50 denotes the concentration that inhibits the measured activity by half. The EC50 is the concentration needed to bring the measured effect to its halfway point.
